Data published in patent US8030017B2, “Thermostable luciferases and methods of production” (Promega Corporation, priority 1997, dated 2011).

Assays:
[1] = Robotic quantitative screen of E. coli lysates: signal stability (S), sustained enzymatic turnover; assay type: biochemical; conditions: inverse ratio with reference
Description: (§1) One daughter plate is placed in the luminometer and the 1X assay method is used. After the assay, the plate is placed in the ambient incubator, and the second daughter plate is placed in the luminometer. For the second plate, the 0.02X assay method is used. This plate is discarded, and the first plate is returned from the incubator to the luminometer. The repeat assay method is used (i.e., no reagent is injected). Afterwards, the plate is again returned to the ambient incubator.
The plate in the ambient incubator is returned to the luminometer and the repeat assay method is again used. The plate is returned afterwards to the ambient incubator.
The plate in the ambient incubator is returned to the luminometer and the repeat assay method is again used. The plate is discarded afterwards.
(§2) The following criteria were used for screening purposes. The temperature chosen for the enzyme stability parameter was such that the parent enzyme would decay 100 to 1000 fold over 10 hours (see Table 1). Criteria 1 is achieved manually; data for criteria 2-6 is generated by robotic analysis. For all criteria, the maximum value as described is selected. • 1. In vivo screen. The brightest clones are selected at a given temperature. • 2. Expression/specific activity. The value for normalized luminescence is calculated as the ratio of luminescence to optical density. The value is reported as the ratio with the reference value. • 3. Enzyme stability. Measurements of normalized luminescence of the incubated samples (3 taken over about 15 hours) are fitted to In(L)=In(L0)−(t/τ), where L is normalized luminescence and t is time. τ is a measure of the enzyme stability. The value is reported as the ratio with the reference value, and the correlation coefficients are calculated. • 4. Substrate binding. Measurements of normalized luminescence with 1X and 0.02X are taken at the initial reading set, and 1X and 0.06X are taken at the 5 hour set. The ratio of the 0.02X:1X and 0.06X:1X gives the relative luminescence at 0.02X and 0.06X concentrations. These values, along with the relative luminescence at 1X (i.e., 1), are fitted to a Lineweaver-Burk plot to yield the Km:app,total for the substrates ATP, luciferin, and CoA. The values are reported as the inverse ratio with the reference value, and the correlation coefficients are calculated. • 5. Signal stability. The luminescence of the initial IX luminescent reactions are re-measured 3 additional times over about 15 hours. These values are fitted to In(L)=In(L0)−(t/τ) and the integral over t (15 hours) is calculated. Signal stability is then calculated as S=(1−int(L)/L0t)^2. The values are reported as the inverse ratio with the reference value, and the correlation coefficients are calculated. • 6. Composite fitness. The values of criteria 2 through 5 are combined into a single composite value of fitness (or commercial utility). This value is based on a judgment of the relative importance of the other criteria. This judgment is given below:
Calculate signal stability (S): For each sample, use linear regression to fit In(L)=In(L0)[…] using the four luminescence measurements of the initial microplate with 1X substrate concentrations (Plates 1, 3, 4, and 7). Also calculate the regression coefficient. From the calculated values of T and L0, calculate the integral of luminescence by int(L)=τL0(1−exp(−tf/τ)), where tf is the average time of the last measurement (e.g., 15 hours). The signal stability is calculated as S=(1−int(L)/Litf)^2, where Li is the initial measurement of normalized luminescence with 1× substrate concentration (Plate 1).
[Note: To correct for evaporation, an equation S=(1+K−int(L)/Litf)^2, may be used where 1/K=2(relative change of liquid volume at tf).]
Calculate the reference-normalized values: For the criteria parameter of each sample, a reference-normalized value is determined by calculating the ratio or inverse ratio with the respective reference value. […]

[2] = Robotic quantitative screen of E. coli lysates: enzyme stability (tau) at elevated temperature; assay type: physicochemical; conditions: relative value
Description: Two white assay plates (Labsystems #9502887) are obtained from the plate feeder and placed in the pipetter. The incubation plate from the shaker is placed in the pipetter, and the lid removed and placed on the nearby locator. Two daughter plates are made using the pipetting procedure (see “Create Pair of Daughter Plates from Incubation Plate”). Afterwards, the lid is replaced on the parent plate, and the plate is placed in a high temperature incubator. [ranging from 31° C. to about 65° C. depending on the clone.]
To begin the second set of measurements, the plate from the high temperature incubator is placed in the shaker to mix.
In the final set of measurements, the plate from the high temperature incubator is again placed in the shaker to mix.
as §2
Calculate enzyme stability (τ): For each sample, use linear regression to fit In(L1x)=In(L0)−(t/τ) using the three luminescence measurements with 1X substrate concentrations (Plates 1, 5, 8). Also calculate the regression coefficient.
Calculate the reference-normalized values: For the criteria parameter of each sample, a reference-normalized value is determined by calculating the ratio or inverse ratio with the respective reference value. The reference-normalized values are Li/Lir, τ/τr, Kmr/Km:app,total, and Sr/S, where reference values are calculated from the equations of the appropriate reference surface.
“Enzyme stability” was determined by the rate of activity loss from cell lysates over 10 hours. In successive rounds of evolution the incubation temperature of the lysates was increased.
Robotic Automation: Robotic automation was used in the quantitative screens to accurately perform the large number of required quantitative assays on the cultured cells. […]

[3] = Robotic quantitative screen of E. coli lysates: luminescence activity (Li), expression/specific activity; assay type: biochemical; conditions: relative value
Description: A plate containing cells is retrieved from the carousel and placed on the shaker for 3-5 minutes to fully mix the cells. The cells tend to settle from solution upon standing.
To measure Optical Density (O.D.), the plate is moved from the shaker to the locator near the luminometer; the lid is removed and the plate placed into the luminometer. The O.D. is measured using a 620 nm filter.
To prepare a cell lysate, the plate of cells is first retrieved from the refrigerator and mixed on the shaker to resuspend the cells. A new plate from the carousel without a lid is placed in the reagent dispenser and 20 μl of Buffer A is added to each well. This is placed in the pipetting station.
The plate is then moved to the reagent dispenser to add 175 μl of Buffer B, and then mixed on the shaker for about 15 minutes or more. The combination of the freeze/thaw and Buffer B will cause the cells to lyse.
as §1
1X Assay reagent: 5 μM Luciferin; 175 μM ATP; 20 mM Tricine, pH 8.0; 0.1 mM EDTA
as §2
Normalize luminescence data: For each measurement of luminescence in the eight daughter plates, the normalized luminescence is calculated by dividing the relative light units by the optical density of the original plate. […]

[4] = Control is Luc71-5D4 at 60° C. (=1)
[5] = Control is Luc46-2H3 at 54° C. (=1)
[6] = Control is Luc84-3A6 at 64° C. (=1)

Row | Molecule | Signal stability (S) [1, 4] | Enzyme stability (tau) [2, 4] | Luminescence (Li) [3, 4] | Signal stability (S) [1, 5] | Enzyme stability (tau) [2, 5] | Luminescence (Li) [3, 5] | further results
1 | 78-1e1-: mutant luciferase, SEQ ID NO:21 (protein, not fully specified; X: residue not identified in the source) MADKNILYGPEPFYPLADGTAGEQMFDALSRYADIPGCIALTNAHTKENVLYEEFLKLSCRLAESFKKYGLKQNDTIAVCSENGLQYFLPVIASLYLGIIAAPVSDKYIERELIHSLGIVKPRIIFCSKNTFQKVLNVKSKLKYVETIIILDLNEDLGGYQCLNNFISQNSDINLDVKKFKPNSFNRDDQVALVMFSSGTTGVPKGVMLTHKNIVARFSIAKDPTFGNAINPTTAILTVIPFHHGFGMMTTLGYFTCGFRVVLMHTFEEKLFLQSLQDYKVESTLLVPTLMAFLAKSALVEKYDLSHLKEIASGGAPLSKEIGEMVKKRFKLNFVRQGYGLTETTSAVLITPKXXARPGSTGKIVPFHAVKVVDPTTGKILGPNEPGELYFKGAMIMKGYYNNEEATKAIIDKDGWLRSGDIAYYDNDGHFYIVDRLKSLIKYKGYQVAPAEIEGILLQHPYIVDAGVTGIPDEAAGELPAAGVVVQTGKYLNEQIVQNFVSSQVSTAKWLRGGVKFLDEIPKGSTGKIDRKVLRQMFEKHTNG | 0.9877 | 8.9 | 0.54 |  |  |  | 
2 | 78-2b4: mutant luciferase, SEQ ID NO:22 (protein, not fully specified; X: residue not identified in the source) MADKNILYGPEPFYPLADGTAGEQMFDALSRYADIPGCIALTNAHTKENVLYEEFLKLSCRLAESFKKYGLKQNDTIAVCSENGLQFFLPVIASLYLGIIAAPVSDKYVERELIHSLGIVKPRIIFCSKNTFQKVLNVKSKLKYVETIIILDLNEDLGGYQCLNNFISQNSDSNLDVKKFKPNSFNRDDQVALVMFSSGTTGVPKGVMLTHKNIVARFSLAKDPTFGNAINPTTAILTVIPFHHGFGMMTTLGYFTCGFRVVLMHTFEEKLFLQSLQDYKVESTLLVPTLMAFLAKSALVEKYDLSHLKEIASGGAPLSKEIGEMVKKRFKLNFVRQGYGLTETTSAVLITPKXXARPGSTGKIVPFHAVKVVDPTTGKILGPNETGELYFKGAMIMKGYYNNEEATKAIIDKDGWLRSGDIAYYDNDGHFYIVDRLKSLIKYKGYQVAPAEIEGILLQHPYIVDAGVTGIPDEAAGELPAAGVVVQTGKYLNEQIVQNFVSSQVSTAKWLRGGVKFLDEIPKGSTGKIDRKVLRQMFEKHTNG | 1.0094 | 1.36 | 1.97 |  |  |  | 
3 | 49-6c10: mutant luciferase, SEQ ID NO:15 (protein, Mutant luciferase) MEDKNILYGPEPFYPLADGTAGEQMFYALSRYADISGCIALTNAHTKENVLYEELLKLSCRLAESFKKYGLKQNDTIAVCSENGLQFFLPIIASLYLGIIAAPVSDKYIERELIHSLGIVKPRIIFCSKNTFQKVLNVKSKLKYVETIIILDLNEDLGGYQCLNNFISQNSDINLDVKKFKPYSFNRDDQVALVMFSSGTTGVSKGVMLTHKNIVARFSHAKDPTFGNAINPTTAILTVIPFHHGFGMMTTLGYFTCGFRVVLMHTFEEKLFLQSLQDYKVESTLLVPTLMAFFAKSALVEKYDLSHLKEIASGGAPLSKEIGEMVKKRFKLNFVRQGYGLTETTSAVLITPNNDVRPGSTGKIVPFHAVKVVDPTTGKILGPNETGELYFKGDMIMKGYYNNEEATKAIINKDGWLRSGDIAYYDNDGHFYIVDRLKSLIKYKGYQVAPAEIEGILLQHPYIVDAGVTGIPDEAAGELPAAGVVVQTGKYLNEQIVQNFVSSQVSTAKWLRGGVKFLDEIPKGSTGKIDRKVLRQMFEKHTNG |  |  |  | 1 | 2.2 | 0.57 | 
4 | 49-0g12: mutant luciferase, SEQ ID NO:16 (protein, Mutant luciferase) MEDKNILYGPEPFYPLADGTAGEQMFYALSRYADISGCIALTNAHTKENVLYEEFLKLSCRLAESFKKYGLKQNDTIAVCSENGLQFFLPIIASLYLGIIAAPVSDKYIERELIHSLGIVKPRIIFCSKNTFQKVLNVKSKLKYVETIIILDLNEDLGGYQCLNNFISQNSDINLDVKKFKPYSFNRDDQVALVMFSSGTTGVSKGVMLTHKNIVVRFSLAKDPTFGNAINPTTAILTVIPFHHGFGMMTTLGYFTCGFRVVLMHTFEEKLFLQSLQDYKVESTLLVPTLMAFFAKSALVEKYDLSHLKEIASGGAPLSKEIGEMVKKRFKLNFVRQGYGLTETTSAVLITPNNDVRPGSTGKIVPFHAVKVVDPTTGKILGPNETGELYFKGDMIMKGYYNNEEATKAIITKDGWLRSGDIAYYDNDGHFYIVDRLKSLIKYKGYQVAPAEIEGILLQHPYIVDAGVTGIPDEAAGELPAAGVVVQTGKYLNEQIVQNFVSSQVSTAKWLRGGVKFLDEIPKGSTGKIDRKVLRQMFEKHTNG |  |  |  | 1.08 | 1.58 | 1 | 
5 | 85(86)-4f12: mutant luciferase, SEQ ID NO:23 (protein, not fully specified; X: residue not identified in the source) MADKNILYGPEPFYPLADGTAGEQMFDALSRYADIPGCIALTNAHTKENVLYEEFLKLSCRLAESFKKYGLKQNDTIAVCSENGLQFFLPVIASLYLGIIVAPVNDKYIERELIHSLGIVKPRIIFCSKNTFQKVLNVKSKLKSVETIIILDLNEDLGGYQCLNNFISQNSDINLDVKKFKPYSFNRDDQVALIMFSSGTTGLPKGVMLTHKNIVARFSLAKDPTFGNAINPTTAILTVIPFHHGFGMMTTLGYFTCGFRVVLMHTFEEKLFLQSLQDYKVESTLLVPTLMAFLAKSALVEKYDLSHLKEIASGGAPLSKEIGEMVKKRFKLNFVRQGYGLTETTSAVLITPKXXARPGSTGKIVPFHAVKVVDPTTGKILGPNEPGELYFKGPMIMKGYYNNEEATKAIIDNDGWLRSGDIAYYDNDGHFYIVDRLKSLIKYKGYQVAPAEIEGILLQHPYIVDAGVTGIPDEAAGELPAAGVVVQTGKYLNEQIVQDFVSSQVSTAKWLRGGVKFLDEIPKGSTGKIDRKVLRQMFEKHTNG |  |  |  |  |  |  | Signal stability (S) [1, 6]: 1.0092; Enzyme stability (tau) [2, 6]: 4.7851; Luminescence (Li) [3, 6]: 1.1167
